Like-named read-outs stand apart in the source and are kept apart here. Non-standard residues stand in square brackets, D forms with d. No end group written: not given here. *: point of attachment. Palmitoyl = CCCCCCCCCCCCCCCC(=O)*; Aib = CC(C)(N)C(=O)O
Key:
Assay in all cases: cell-based or functional assay
glucagon receptor [1] = target: T1, glucagon receptor (human, UniProt P47871 26-477)
GLP-1 receptor [2] = target: T2, GLP-1 receptor (human, UniProt P43220 24-463)
glucagon receptor [3] = target: T1, glucagon receptor; remark: listed apart in the source
GLP-1 receptor [4] = target: T2, GLP-1 receptor; remark: listed apart in the source
glucagon receptor [5] = target: T1, glucagon receptor; remark: listed apart in the source
GLP-1 receptor [6] = target: T2, GLP-1 receptor; remark: listed apart in the source
glucagon receptor [7] = target: T1, glucagon receptor; remark: listed apart in the source
GLP-1 receptor [8] = target: T2, GLP-1 receptor; remark: listed apart in the source
GLP-1 receptor [9] = target: T2, GLP-1 receptor; remark: listed apart in the source

T1 sequence (P47871 26-477): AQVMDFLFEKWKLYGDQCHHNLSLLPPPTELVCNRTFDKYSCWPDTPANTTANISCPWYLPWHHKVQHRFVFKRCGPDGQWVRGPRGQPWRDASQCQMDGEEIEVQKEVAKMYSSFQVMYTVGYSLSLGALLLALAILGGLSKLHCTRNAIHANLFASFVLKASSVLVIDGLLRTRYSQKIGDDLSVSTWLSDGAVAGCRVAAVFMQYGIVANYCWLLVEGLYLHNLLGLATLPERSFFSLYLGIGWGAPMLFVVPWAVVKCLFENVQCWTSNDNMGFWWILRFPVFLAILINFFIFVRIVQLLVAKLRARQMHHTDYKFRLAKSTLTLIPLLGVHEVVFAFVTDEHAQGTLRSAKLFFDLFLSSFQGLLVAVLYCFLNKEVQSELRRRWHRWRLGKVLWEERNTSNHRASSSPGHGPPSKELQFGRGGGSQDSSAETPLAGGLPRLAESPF

HSQGTFTSDK(Palmitoyl)SKYLDEEAVRLFIEWLMNT-NH2 [Glucagon Analog 39]
EC50 (cAMP luciferase reporter) (glucagon receptor [1]): 2.54 nM | EC50 (cAMP luciferase reporter) (GLP-1 receptor [2]): 0.033 nM

HSQGTFTSDYSKYLDERRAKEFVQWLMNT-NH2 (not fully specified; also: further groups not given here) [Glucagon Analog 68]
% Relative Activity vs native glucagon (glucagon receptor [3]): 104% | EC50 (cAMP luciferase reporter) (glucagon receptor [3]): 0.068 nM | % Relative Activity vs native GLP-1 (GLP-1 receptor [4]): 44% | EC50 (cAMP luciferase reporter) (GLP-1 receptor [4]): 0.075 nM

HSQGTFTSDYSKYLDEKRAKEFVCWLLDGGPSSGAPPPS-NH2 (not fully specified; also: further groups not given here) [Glucagon Analog 61]
% Relative Activity vs native glucagon (glucagon receptor [3]): 88% | EC50 (cAMP luciferase reporter) (glucagon receptor [3]): 0.017 nM | % Relative Activity vs native GLP-1 (GLP-1 receptor [4]): 39% | EC50 (cAMP luciferase reporter) (GLP-1 receptor [4]): 0.096 nM

HSQGTFTSDYSKYLD[Aib]KAVRLFICWLLDT-NH2 [Glucagon Analog 86]
EC50 (cAMP luciferase reporter) (glucagon receptor [1]): 0.035 nM | percent in parentheses (not explained) (glucagon receptor [1]): 43% | EC50 (cAMP luciferase reporter) (GLP-1 receptor [2]): 0.035 nM | percent in parentheses (not explained) (GLP-1 receptor [2]): 106%

HSQGTFTSDKSKYLDEQAAKEFICWLLDTG (not fully specified) [Glucagon Analog 55]
% Relative Activity vs native glucagon (glucagon receptor [5]): 7% | EC50 (cAMP luciferase reporter) (glucagon receptor [5]): 0.55 nM | % Relative Activity vs native GLP-1 (GLP-1 receptor [6]): 16% | EC50 (cAMP luciferase reporter) (GLP-1 receptor [6]): 0.516 nM

HSQGTFTSDKSKYLDEQAAKEFICWLLDTGG (not fully specified) [Glucagon Analog 56]
% Relative Activity vs native glucagon (glucagon receptor [5]): 272% | EC50 (cAMP luciferase reporter) (glucagon receptor [5]): 0.018 nM | % Relative Activity vs native GLP-1 (GLP-1 receptor [6]): 125% | EC50 (cAMP luciferase reporter) (GLP-1 receptor [6]): 0.068 nM

HSQGTFTSDKSKYLDEQAAKEFICWLLDE-NH2 (not fully specified; also: further groups not given here) [Glucagon Analog 82]
% Relative Activity vs native glucagon (glucagon receptor [7]): 121% | EC50 (cAMP luciferase reporter) (glucagon receptor [7]): 14000 nM | % Relative Activity vs native GLP-1 (GLP-1 receptor [8]): 345% | EC50 (cAMP luciferase reporter) (GLP-1 receptor [8]): 0.02 nM

HSQGTFTSDKSKYLDEQAAKEFIC(PEG 40 kDa)WLLDTGG-NH2 (not fully specified; also: further groups not given here) [Glucagon Analog 78]
% Relative Activity vs native glucagon (glucagon receptor [7]): 44% | EC50 (cAMP luciferase reporter) (glucagon receptor [7]): 140000 nM | % Relative Activity vs native GLP-1 (GLP-1 receptor [8]): 196% | EC50 (cAMP luciferase reporter) (GLP-1 receptor [8]): 0.026 nM

HSQGTFTSDKSKYLDEQAVRLFIC(PEG 40 kDa)WLLDT-NH2 (also: acylated amino acid at position 10, acyl group not given here) [Glucagon Analog 85]
EC50 (cAMP luciferase reporter) (glucagon receptor [1]): 0.107 nM | percent in parentheses (not explained) (glucagon receptor [1]): 16% | EC50 (cAMP luciferase reporter) (GLP-1 receptor [2]): 0.013 nM | percent in parentheses (not explained) (GLP-1 receptor [2]): 284%

HSQGTFTSDYSKYLDEEAVRLFICWLMNT-NH2 (also: DPP-IV-resistant residue at position 1 or 2) [Glucagon Analog 32]
EC50 (cAMP luciferase reporter) (glucagon receptor [1]): 0.22 nM | EC50 (cAMP luciferase reporter) (GLP-1 receptor [2]): 0.007 nM

HSQGTFTSDKSKYLDEQAAKEFICWLLDT (also: DPP-IV-resistant residue at position 1 or 2, not given here) [Glucagon Analog 53]
% Relative Activity vs native glucagon (glucagon receptor [5]): 411% | EC50 (cAMP luciferase reporter) (glucagon receptor [5]): 0.009 nM | % Relative Activity vs native GLP-1 (GLP-1 receptor [6]): 708% | EC50 (cAMP luciferase reporter) (GLP-1 receptor [6]): 0.012 nM

HSQGTFTSDYSKYLDEQAVRLFICWLLDT-NH2 (not fully specified; also: further groups not given here) [Glucagon Analog 87]
EC50 (cAMP luciferase reporter) (glucagon receptor [1]): 0.021 nM | percent in parentheses (not explained) (glucagon receptor [1]): 71% | EC50 (cAMP luciferase reporter) (GLP-1 receptor [2]): 0.013 nM | percent in parentheses (not explained) (GLP-1 receptor [2]): 284%

B1: Peptide 15 (peptide)
peptide: KHSQETFTSDYSKYLDSRRAQDFVQWLMNT
modifications: not fully specified; amidated unless FIG. 1 shows OH; lactam, D-residues, Orn/Dab only as drawn in FIG. 1
EC50 (cAMP luciferase reporter) (GLP-1 receptor [9]): 73.4 nM

HSQGTFTSDYSKYLDERRAKDFVQWLMNT-NH2 (not fully specified; also: further groups not given here) [Glucagon Analog 67]
% Relative Activity vs native glucagon (glucagon receptor [3]): 93% | EC50 (cAMP luciferase reporter) (glucagon receptor [3]): 0.077 nM | % Relative Activity vs native GLP-1 (GLP-1 receptor [4]): 47% | EC50 (cAMP luciferase reporter) (GLP-1 receptor [4]): 0.071 nM

HSQKTFTEDYSKYLDSRRAQDFVQWLMNT (not fully specified; also: further groups not given here) [Peptide 16]
EC50 (cAMP luciferase reporter) (GLP-1 receptor [9]): 121 nM

HSQGTFTSDYSKYLDSKRAQEFVQWLMNT-NH2 (also: non-coded residues and acylation only) [Glucagon Analog 66]
EC50 (cAMP luciferase reporter) (GLP-1 receptor [4]): 0.13 nM

HSQGTFTSDYSKYLDSKRAQEFVQWLMNT-NH2 [Peptide 1]
EC50 (cAMP luciferase reporter) (GLP-1 receptor [9]): 0.13 nM

HSQGTFTSDKSKYLDEQAAKEFIC(PEG 40 kDa)WLLDT-NH2 (not fully specified; also: further groups not given here) [Glucagon Analog 79]
% Relative Activity vs native glucagon (glucagon receptor [7]): 26% | EC50 (cAMP luciferase reporter) (glucagon receptor [7]): 240000 nM | % Relative Activity vs native GLP-1 (GLP-1 receptor [8]): 41% | EC50 (cAMP luciferase reporter) (GLP-1 receptor [8]): 0.125 nM

HSQGTFTSDYSKYLDEEAVRLFICWLMNT-NH2 (also: DPP-IV-resistant residue at position 1 or 2) [Glucagon Analog 34]
EC50 (cAMP luciferase reporter) (glucagon receptor [1]): 0.404 nM | EC50 (cAMP luciferase reporter) (GLP-1 receptor [2]): 0.018 nM

HAQGTFTSDKSKYLDERAAQDFVC(PEG 40 kDa)WLLDT-NH2 (also: other non-coded residues as, not given here) [Glucagon Analog 81]
% Relative Activity vs native glucagon (glucagon receptor [7]): 51.4% | EC50 (cAMP luciferase reporter) (glucagon receptor [7]): 37000 nM | % Relative Activity vs native GLP-1 (GLP-1 receptor [8]): 300% | EC50 (cAMP luciferase reporter) (GLP-1 receptor [8]): 0.012 nM

HSQGTFTSDYSKYLDEKRAKEFVQWLMNT-NH2 (not fully specified; also: further groups not given here) [Glucagon Analog 65]
% Relative Activity vs native glucagon (glucagon receptor [3]): 264% | EC50 (cAMP luciferase reporter) (glucagon receptor [3]): 0.053 nM | % Relative Activity vs native GLP-1 (GLP-1 receptor [4]): 64% | EC50 (cAMP luciferase reporter) (GLP-1 receptor [4]): 0.036 nM

HSQGTFTSDKSKYLDEQAAKEFICWLLDTE-NH2 (not fully specified; also: further groups not given here) [Glucagon Analog 83]
% Relative Activity vs native glucagon (glucagon receptor [7]): 61% | EC50 (cAMP luciferase reporter) (glucagon receptor [7]): 28000 nM | % Relative Activity vs native GLP-1 (GLP-1 receptor [8]): 288% | EC50 (cAMP luciferase reporter) (GLP-1 receptor [8]): 0.024 nM

HSQGTFTSDYSKYLDEQAVRLFICWLLDGGPSSGAPPPS-NH2 (not fully specified; also: further groups not given here) [Glucagon Analog 84]
EC50 (cAMP luciferase reporter) (glucagon receptor [1]): 0.132 nM | percent in parentheses (not explained) (glucagon receptor [1]): 14.4% | EC50 (cAMP luciferase reporter) (GLP-1 receptor [2]): 0.006 nM | percent in parentheses (not explained) (GLP-1 receptor [2]): 600%

HSQGTFTSDKSKYLDEEAVRLFIEWLMNT-NH2 (also: Lys-γGlu-C16 (K(B)) at unstated position) [Glucagon Analog 37]
EC50 (cAMP luciferase reporter) (glucagon receptor [1]): 0.119 nM | EC50 (cAMP luciferase reporter) (GLP-1 receptor [2]): 0.011 nM

HSQGTFTSDKSKYLDEQAAKEFICWLLDT (also: DPP-IV-resistant residue at position 1 or 2, not given here) [Glucagon Analog 57]
% Relative Activity vs native glucagon (glucagon receptor [5]): 1% | EC50 (cAMP luciferase reporter) (glucagon receptor [5]): 4.8 nM

B2: Peptide 14 (peptide)
peptide: KHSQETFTSDYSKYLDSRRAQDFVQWLMNT
modifications: not fully specified; amidated unless FIG. 1 shows OH; lactam, D-residues, Orn/Dab only as drawn in FIG. 1
EC50 (cAMP luciferase reporter) (GLP-1 receptor [9]): 33 nM
